Results on five molecules are retold here after paper PMC7594292, “Two conformations of DNA polymerase D-PCNA-DNA, an archaeal replisome complex, revealed by cryo-electron microscopy” (BMC Biology, 2020).

In data set [1] the target is Thermococcus kodakarensis proliferating cell nuclear antigen PCNA1 (TkoPCNA), homotrimer (UniProt Q5JF32). Put plainly: SPR. Conditions: PCNA immobilized on a sensor chip, PolD at 500 nM, read off a plot.
For data set [2], the target named is T1, PolDΔPIP: PolD with DP2(Δ1314-1324) (Thermococcus kodakarensis). The data set is described as follows: SPR. (SPR reads the build-up and loss of mass on a sensor chip optically.)
The target of data set [3] is T2, PolDΔPIPΔKR: PolD with DP1(K326A K328A) and DP2(K432A R434A R781A, Δ1314-1324) (Thermococcus kodakarensis, UniProt Q5JET0 1-1313, K432A | R434A | R781A, DP1 residue 328 is Ala (wild type printed as both K328 and R328, so the Ala is spliced in). DP2 is the mature intein-free form, residues 1-1313 (PIP box 1314-1324 deleted; mature 1313 = precursor …). The data set is described as follows: SPR.

The target in data set [4] is T3, PolDΔKR: PolD with DP1(K326A K328A) and DP2(K432A R434A R781A) (Thermococcus kodakarensis, DP1 residue 328 is Ala (wild type printed as both K328 and R328, so the Ala is spliced in; the mutagenic primer encodes Ala-Val-Ala at 326-328). DP2 is the mature intein-free form (1324 aa). Zn bound …). Put plainly: SPR.
For data set [5], the target named is T4, Thermococcus kodakarensis DNA polymerase D (PolD), wild type, DP1-DP2 heterodimer (Thermococcus kodakarensis). The data set is described as follows: SPR.
Data set [6] concerns the molecule itself. The data set is described as follows: cryo-EM structure; PolD-PCNA-primed DNA complex reconstituted from purified proteins without Mg2+ and isolated by gel filtration; Form A with DNA (25/35) at 6.9 Å, Form A and Form B with DNA (30/45); crystal structures and homology models fitted.
Data set [7] has as its target T1, PolDΔPIP: PolD with DP2(Δ1314-1324). The data set is described as follows: SPR. The source holds these as a separate data set.
The target in data set [8] is T2, PolDΔPIPΔKR: PolD with DP1(K326A K328A) …. Put plainly: SPR. The source holds these as a separate data set.
The target in data set [9] is T3, PolDΔKR: PolD with DP1(K326A K328A) and …. The data set is described as follows: SPR. The source holds these as a separate data set.
The target of data set [10] is T4, Thermococcus kodakarensis DNA …. Put plainly: SPR. The source holds these as a separate data set.
Data set [11] concerns the target DP1 (PolD small subunit);DP2 (PolD large subunit);TkoPCNA (PCNA1) (Thermococcus kodakarensis;Thermococcus …, UniProt Q5JET1;Q5JET0;Q5JET0;Q5JF32 1-735;1-963;1438-1798;1-249, ||). Put plainly: gel filtration; 50 mM NaCl elution; EMSA: 20 mM Tris-HCl pH 8.0, 10 mM KCl, 10 mM (NH4)2SO4, 1 mM DTT, 0.1 mg/ml BSA, 2 mM MgCl2, 40 C 10 min, 0.8% agarose 0.1x TAE; EM complex: 50 mM Tris-HCl pH. The settings on record: protein: recombinant;recombinant;recombinant; tags: ;;; copies: 1;1;1;3; primer-template, 5' overhang 15 nt on template. Background: Size exclusion chromatography separates by hydrodynamic size, large species first.

The target of data set [12] is T5, DP1 (PolD small subunit);DP2CTD (Thermococcus kodakarensis;Thermococcus …, UniProt Q5JET1;Q5JET0 1-735;1474-1798, |).
T5 sequence 1: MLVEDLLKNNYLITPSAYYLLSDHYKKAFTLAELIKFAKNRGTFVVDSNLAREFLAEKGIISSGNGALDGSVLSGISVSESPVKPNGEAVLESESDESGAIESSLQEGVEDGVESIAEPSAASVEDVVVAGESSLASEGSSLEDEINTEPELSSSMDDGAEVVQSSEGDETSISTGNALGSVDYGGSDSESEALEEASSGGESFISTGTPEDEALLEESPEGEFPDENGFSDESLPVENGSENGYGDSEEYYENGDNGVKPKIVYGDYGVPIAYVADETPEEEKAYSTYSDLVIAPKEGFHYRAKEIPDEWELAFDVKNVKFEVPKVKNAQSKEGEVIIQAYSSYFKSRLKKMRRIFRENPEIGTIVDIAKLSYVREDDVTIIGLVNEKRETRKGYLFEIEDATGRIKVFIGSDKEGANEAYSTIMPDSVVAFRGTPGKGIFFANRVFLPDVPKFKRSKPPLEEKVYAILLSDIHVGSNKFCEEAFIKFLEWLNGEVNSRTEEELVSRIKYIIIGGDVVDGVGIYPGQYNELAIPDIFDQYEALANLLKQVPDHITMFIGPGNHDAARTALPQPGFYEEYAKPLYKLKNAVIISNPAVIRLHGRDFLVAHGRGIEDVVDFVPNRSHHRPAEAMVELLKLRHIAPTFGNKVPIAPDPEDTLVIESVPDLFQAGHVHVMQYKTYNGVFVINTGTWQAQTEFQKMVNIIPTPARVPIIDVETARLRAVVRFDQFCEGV
T5 sequence 2: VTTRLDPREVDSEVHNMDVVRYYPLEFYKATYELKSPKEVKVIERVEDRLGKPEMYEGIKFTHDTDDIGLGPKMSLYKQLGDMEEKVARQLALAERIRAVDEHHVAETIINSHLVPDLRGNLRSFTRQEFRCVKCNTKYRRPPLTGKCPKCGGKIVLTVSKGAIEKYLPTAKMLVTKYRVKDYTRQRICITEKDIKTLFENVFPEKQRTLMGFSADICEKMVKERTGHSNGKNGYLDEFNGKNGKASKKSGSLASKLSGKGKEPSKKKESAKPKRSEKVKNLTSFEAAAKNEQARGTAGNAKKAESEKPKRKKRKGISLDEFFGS
The data set is described as follows: EMSA; 2 mM MgCl2; EMSA: 20 mM Tris-HCl pH 8.0, 10 mM KCl, 10 mM (NH4)2SO4, 1 mM DTT, 0.1 mg/ml BSA, 2 mM MgCl2, 40 C 10 min, 0.8% agarose 0.1x TAE; EM complex: 50 mM Tris-HCl pH. Conditions: protein: recombinant;recombinant; tags: ;His; copies: 1;1; label: 5' Cy5 on primer; primer-template, 5' overhang 13 nt on template.

The target in the next data set is T6, DP2CTD (Thermococcus kodakarensis, UniProt Q5JET0 1474-1798).
T6 sequence: T5 sequence 2
Put plainly: EMSA; 2 mM MgCl2; readily detectable but weaker than DP1-DP2CTD; EMSA: 20 mM Tris-HCl pH 8.0, 10 mM KCl, 10 mM (NH4)2SO4, 1 mM DTT, 0.1 mg/ml BSA, 2 mM MgCl2, 40 C 10 min, 0.8% agarose 0.1x TAE; EM complex: 50 mM Tris-HCl pH. Conditions: protein: recombinant; tags: His; label: 5' Cy5 on primer; primer-template, 5' overhang 13 nt on template. For orientation: In EMSA bound probe runs differently from free probe, usually more slowly.

Chain of DP1 (PolD small subunit);DP2 (PolD large subunit);TkoPCNA (PCNA1) (Q5JET0 1-963, one chain of several): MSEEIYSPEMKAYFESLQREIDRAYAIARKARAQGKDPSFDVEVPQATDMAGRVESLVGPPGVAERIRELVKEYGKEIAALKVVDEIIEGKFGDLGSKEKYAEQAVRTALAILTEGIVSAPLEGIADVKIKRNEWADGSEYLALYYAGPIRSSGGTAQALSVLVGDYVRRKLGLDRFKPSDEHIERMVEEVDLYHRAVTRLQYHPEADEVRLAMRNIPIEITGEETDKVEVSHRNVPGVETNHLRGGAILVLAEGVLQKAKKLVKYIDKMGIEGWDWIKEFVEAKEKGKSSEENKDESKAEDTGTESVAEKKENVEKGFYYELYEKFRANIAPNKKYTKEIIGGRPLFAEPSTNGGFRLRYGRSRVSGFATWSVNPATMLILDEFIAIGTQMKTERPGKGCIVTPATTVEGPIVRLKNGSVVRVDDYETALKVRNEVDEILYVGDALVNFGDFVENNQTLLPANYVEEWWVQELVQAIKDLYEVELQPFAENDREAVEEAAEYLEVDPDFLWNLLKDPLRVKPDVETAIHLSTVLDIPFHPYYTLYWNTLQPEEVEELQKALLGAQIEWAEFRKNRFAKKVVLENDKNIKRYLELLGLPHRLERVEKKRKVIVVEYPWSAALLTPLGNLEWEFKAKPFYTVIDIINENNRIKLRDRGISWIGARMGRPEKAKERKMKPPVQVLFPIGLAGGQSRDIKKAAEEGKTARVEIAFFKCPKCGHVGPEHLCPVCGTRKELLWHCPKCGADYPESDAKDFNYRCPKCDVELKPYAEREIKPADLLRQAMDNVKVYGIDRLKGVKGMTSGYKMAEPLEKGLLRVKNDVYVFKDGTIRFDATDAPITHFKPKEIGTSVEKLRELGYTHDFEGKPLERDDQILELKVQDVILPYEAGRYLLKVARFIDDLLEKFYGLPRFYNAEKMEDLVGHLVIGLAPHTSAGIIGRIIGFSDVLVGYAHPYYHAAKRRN

Turning to “PolDΔPIP: PolD with DP2(Δ1314-1324) DP1:K326A; DP1:K328A; DP2:K432A; DP2:R434A; DP2:R781A”, the response in [1] (parent: est. 700) was determined as 150 RU.

In the case of “Thermococcus kodakarensis DNA polymerase D (PolD), wild type, DP1-DP2 heterodimer DP1:K326A; DP1:K328A; DP2:K432A; DP2:R434A; DP2:R781A”, the response in data set [1] (parent: est. 1050) came to 450 RU.

B1: Thermococcus kodakarensis proliferating cell nuclear antigen PCNA1 (TkoPCNA), homotrimer (natural protein)
chain: MPFEVVFDGAKEFADLIATASNLIDEAAFKFTEEGISMRAMDPSRVVLIDLNLPESIFSKYEVEEPETIGINMDQFKKILKRGKAKDTLILRKGDENFLEITFEGTAKRTFRLPLIDVEELELELPELPFTAKVVLLGEVLKEGIKDASLVSDAIKFIAKENEFTMKAEGETNEVEIRLTLEDEGLLDLEVEEETKSAYGIRYLSDMVKGIGKADEVILRFGNEMPLQMEYMIRDEGRLTFLLAPRVEE
notes: source: purified as described previously [23]
For orientation: Kd means a measure of binding affinity in units of concentration. Low values mean a tighter complex, high ones a looser complex. For orientation: stoichiometry N means the number of molecules, sites or subunits per partner or assembly. A word on the koff: it is the first-order rate constant of dissociation. On to B1, for which the Kd was 1300 nM in [2], 12 µM in [3], 4.5 µM in data set [4] and 480 nM in [5]. Besides, the “stoichiometry N” value in data set [6] was found to be 3. Also, the off-rate (koff) in data set [7] was determined as 0.006 s⁻¹; in [8] it was 0.016 s⁻¹; in data set [9], 0.0087 s⁻¹; in data set [10], 0.0048 s⁻¹.

B2: primed DNA (30/45) (dsDNA)
DNA 1: CGAACTGCCTGGAATCCTGACGACATGTAG
DNA 2: TGAGGTGATCGTTCGCTACATGTCGTCAGGATTCCAGGCAGTTCG
modifications: four successive phosphorothioates near the 3' end of both strands
In the case of B2, the binding result in [11] is recorded as “binds”.

B3: primed DNA Cy5-pri32/temp45 (dsDNA)
DNA 1: CGAACTGCCTGGAATCCTGACGACATGTAGCG
DNA 2: B2 DNA 2
Turning to B3, the binding result (in [12]; with DP2CTD) was “binds” throughout.
